Data on two proteins can be found in paper PMC7218104, “Consensus Design of an Evolved High-Redox Potential Laccase” (Frontiers in Bioengineering and Biotechnology, 2020).

Holding throughout (test): purified protein
Common to all, as to conditions: sodium phosphate/citrate buffer 100 mM, pH 4.0

Substrate in data set [1]: COc1ccccc1O
Substrate in data set [2]: COc1cccc(OC)c1O
Format: biochemical, basidiomycete PM1.

Substrate in data set [3]: COc1cc(/C=C/C(=O)O)cc(OC)c1O
In kind it is biochemical, basidiomycete PM1.

Substrate in data set [4]: CCn1c(=NN=c2sc3cc(S(=O)(=O)O)ccc3n2CC)sc2cc(S(=O)(=O)O)ccc21
In kind it is biochemical, basidiomycete PM1.

Substitutions are numbered along the chain they refer to. Names and notes keep the numbering of the source.

B1: OB-1 laccase (evolved variant of PM1 laccase, PM1Lac) (basidiomycete PM1; A260P/A482T/D302E/H229Y/S245G/S447N/V183A) (protein)
chain: SIGPVADLTISNGAVSPDGFSRQAILVNDVFPSPLITGNKGDRFQLNVIDNMTNHTMLKSTSIHWHGFFQHGTNWADGPAFVNQCPISTGHAFLYDFQVPDQAGTFWYHSHLSTQYCDGLRGPIVVYDPQDPHKSLYDVDDDSTVITLADWYHLAAKVGPAAPTADATLINGLGRSINTLNADLAVITVTKGKRYRFRLVSLSCDPNYTFSIDGHSLTVIEADGVNLKPQTVDSIQIFPAQRYSFVLNADQDVDNYWIRALPNSGTRNFDGGVNSAILRYEGAAPVEPTTTQTPSTQPLVESALTTLEGTAAPGNPTPGGVDLALNMAFGFAGGRFTINGASFTPPTVPVLLQILSGAQSAQDLLPSGSVYSLPANADIEISLPATSAAPGFPHPFHLHGHTFAVVRSAGSSTYNYANPVYRDVVNTGSPGDNVTIRFRTDNPGPWFLHCHIDFHLEAGFTVVMAEDIPDVAATNPVPQAWSDLCPTYDALSPDDQ
notes: mature laccase secreted from S. cerevisiae BJ5465 (pJRoC30) with evolved alpha-factor prepro-leader carrying V[alpha10]D, N[alpha23]K, A[alpha87]T; purified to homogeneity
In general, Km refers to the substrate concentration at which the rate is half of its maximum. By kcat is commonly meant the maximal rate divided by the concentration of active sites. A word on the kcat/Km: it is the second-order rate constant that governs catalysis at low substrate concentration. Turning to B1, the Michaelis-Menten constant (Km) in data set [1] turned out to be 2600 ± 400 µM; in data set [2], 150 ± 10 µM; in data set [3] it was 320 ± 20 µM; in data set [4], 7 ± 0.6 µM. The kcat in data set [1] amounted to 117 s⁻¹; in data set [2], 565 ± 13 s⁻¹; in data set [3], 741 ± 14.1 s⁻¹; in data set [4], 690 ± 20.2 s⁻¹. The kcat/Km came to 44600 M⁻¹ s⁻¹ in data set [1], 3.84e+06 M⁻¹ s⁻¹ in data set [2], 2.29e+06 M⁻¹ s⁻¹ in data set [3] and 1.06e+08 M⁻¹ s⁻¹ in data set [4].

B2: OB-1 laccase (evolved variant of PM1 laccase, PM1Lac) (basidiomycete PM1; A260P/A261G/A482T/D302E/H229Y/S245G/S447N/V183A) (protein)
chain: B1 chain with A240G
notes: as for B1
For the protein B2, the Km came out at 3400 ± 400 µM in data set [1], 230 ± 10 µM in data set [2], 450 ± 60 µM in data set [3] and 9 ± 0.9 µM in data set [4]. Besides, the kcat amounted to 171 s⁻¹ in data set [1], 1130 ± 18.4 s⁻¹ in data set [2], 1430 ± 65.2 s⁻¹ in data set [3] and 1330 ± 42.3 s⁻¹ in data set [4]. Moreover, the kcat/Km in data set [1] was found to be 50300 M⁻¹ s⁻¹; in data set [2], 5.56e+06 M⁻¹ s⁻¹; in data set [3], 3.18e+06 M⁻¹ s⁻¹; in data set [4], 1.4e+08 M⁻¹ s⁻¹.
